# According to patent US20040058368A1 (PENN STATE RESEARCH FOUNDATION, published 2004):
# T1: Gal80-TBP (Saccharomyces cerevisiae (yeast), UniProt P04387 1-435; P13393 1-240, limits assumed)
# T1 construct: The junction and any tags are not described
# T1 sequence (looked up): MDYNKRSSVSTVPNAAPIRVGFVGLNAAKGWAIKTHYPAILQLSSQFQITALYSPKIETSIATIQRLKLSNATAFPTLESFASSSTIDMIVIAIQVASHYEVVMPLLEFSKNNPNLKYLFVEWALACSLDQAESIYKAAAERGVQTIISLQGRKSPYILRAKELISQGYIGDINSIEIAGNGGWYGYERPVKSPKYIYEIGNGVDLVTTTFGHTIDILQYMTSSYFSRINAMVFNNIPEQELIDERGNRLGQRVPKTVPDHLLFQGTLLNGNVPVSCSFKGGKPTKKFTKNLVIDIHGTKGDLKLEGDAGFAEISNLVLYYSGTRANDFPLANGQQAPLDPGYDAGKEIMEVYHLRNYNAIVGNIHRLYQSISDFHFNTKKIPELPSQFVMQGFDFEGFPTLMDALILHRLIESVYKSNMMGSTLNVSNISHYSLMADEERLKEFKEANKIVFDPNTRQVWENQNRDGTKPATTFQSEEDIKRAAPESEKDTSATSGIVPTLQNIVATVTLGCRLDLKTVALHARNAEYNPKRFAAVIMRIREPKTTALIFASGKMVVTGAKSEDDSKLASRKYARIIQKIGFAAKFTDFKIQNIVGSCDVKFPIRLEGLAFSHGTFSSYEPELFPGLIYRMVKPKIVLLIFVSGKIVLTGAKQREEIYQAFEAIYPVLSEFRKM
# T2: wild type Gal3p (Saccharomyces cerevisiae (yeast), UniProt P13045 1-520)
# T2 sequence (looked up): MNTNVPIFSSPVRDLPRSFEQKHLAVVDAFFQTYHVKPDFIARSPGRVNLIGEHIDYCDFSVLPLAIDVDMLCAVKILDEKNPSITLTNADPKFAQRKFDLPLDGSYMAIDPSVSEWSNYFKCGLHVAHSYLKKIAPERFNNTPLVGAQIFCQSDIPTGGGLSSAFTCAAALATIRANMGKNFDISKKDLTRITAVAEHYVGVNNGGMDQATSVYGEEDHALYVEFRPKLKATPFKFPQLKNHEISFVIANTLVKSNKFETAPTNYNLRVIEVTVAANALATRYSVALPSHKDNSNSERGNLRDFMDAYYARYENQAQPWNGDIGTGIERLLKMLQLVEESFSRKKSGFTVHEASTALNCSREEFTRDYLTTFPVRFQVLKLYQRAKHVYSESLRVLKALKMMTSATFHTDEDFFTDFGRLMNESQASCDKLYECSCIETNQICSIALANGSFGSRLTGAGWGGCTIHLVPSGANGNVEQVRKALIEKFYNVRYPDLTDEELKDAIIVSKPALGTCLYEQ
# B1: Gal80p (other, Saccharomyces cerevisiae (yeast), UniProt P04387 1-435, looked up)
# chain: MDYNKRSSVSTVPNAAPIRVGFVGLNAAKGWAIKTHYPAILQLSSQFQITALYSPKIETSIATIQRLKLSNATAFPTLESFASSSTIDMIVIAIQVASHYEVVMPLLEFSKNNPNLKYLFVEWALACSLDQAESIYKAAAERGVQTIISLQGRKSPYILRAKELISQGYIGDINSIEIAGNGGWYGYERPVKSPKYIYEIGNGVDLVTTTFGHTIDILQYMTSSYFSRINAMVFNNIPEQELIDERGNRLGQRVPKTVPDHLLFQGTLLNGNVPVSCSFKGGKPTKKFTKNLVIDIHGTKGDLKLEGDAGFAEISNLVLYYSGTRANDFPLANGQQAPLDPGYDAGKEIMEVYHLRNYNAIVGNIHRLYQSISDFHFNTKKIPELPSQFVMQGFDFEGFPTLMDALILHRLIESVYKSNMMGSTLNVSNISHYSL
# notes: Endogenous yeast protein, inside the cells; also called Gal80 protein
# B2: Membrane targeted transcriptional activation domain of Gal4p (Myr-Gal4AD) (other, Saccharomyces cerevisiae (yeast))
# chain: MGCTVSTQTIGDESDPPLTPSALFGGANFNQSGNIADSSLSFTFTNSSNGPNLITTQTNSQALSQPIASSNVHDNFMNNEITASKIDDGNNSKPLSPGWTDQTAYNAFGITTGMFNTTTMDDVYNYLFDDEDTPPNPKKE
# modifications: N-myristoylation signal at the N terminus
# notes: range 758-881; also called membrane-localized Gal4AD
# How the values were obtained:
# [1] = target: T1, Gal80-TBP; assay: 80-Trap HIS3 reporter growth assay in yeast
# Description: FIG. 5. (Yeast cells) A membrane-targeted transcription factor activates GAL gene expression through interaction with Gal80-TBP. Galactose-independent HIS3 reporter (expression as a result of Gal80-TBP and Myr-TAF145 interaction; lane 1). Lane 2 illustrates the positive control: interaction between two proteins known to interact: Fpr1 (in fusion with Gal80) and Hom3 (fused to the Myr sequence and CFP). Lane 3 is the negative control with Gal80-TBP tested against just the Myr sequence. The nutrient agar plate used here contained 3% glycerol/2% lactic acid as carbon source and lacked histidine, tryptophan and uracil.
# [2] = target: T3, Gal4p (Saccharomyces cerevisiae (yeast), UniProt P04386 1-881); assay: formaldehyde cross-linking and chromatin immunoprecipitation in yeast, un-induced against galactose-induced
# T3 construct: Endogenous protein of wild type Sc723 cells, cross-linked in vivo
# Experimental: Fold enrichments are indicated (enrichment). […] FIG. 3C illustrates quantitation of promoter occupancy by Gal4p, Gal80p and Gal3p in un-induced and induced cells. Values are means (±standard deviation) of at least five experiments carried out with two sets of independently prepared chromatin samples.
# Chromatin immunoprecipitations were performed as described by Braunstein et al., 1993, Genes Dev. 7: 592-604 and Kuras et al. 1999, Nature 399: 609-613. Briefly, wild type Sc723 cells (Blank et al., 1997, Mol. Cell. Biol. 17: 2566-2575) were grown to early exponential growth phase (as measured by absorbance at 600 nm˜0.4) in 250 mL yeast extract-peptone medium containing 2% glycerol, 3% lactic acid, and 0.05% glucose (-galactose, un-induced). For galactose-induced cultures, galactose was added to the un-induced cultures to a final concentration of 2% and the cultures were incubated for an additional 20 minutes. Formaldehyde was added to a final concentration of 1%, the cultures were incubated for 20 minutes at room temperature, and glycine was added to a final concentration of 300 mM. All the following steps were carried out at […]. Cells were washed twice with TBS (20 mM Tris-HCl, 150 mM NaCl, pH 8.0), resuspended in 1 mL lysis buffer (50 mM Tris-HCl pH 8.0, 10 mM EDTA, 1% SDS, 1 mM PMSF), and disrupted by vortexing with glass beads. […]
# [3] = target: T2, wild type Gal3p; assay: cell-based or functional assay
# [4] = target: B1; assay: UASGAL-HIS3 reporter growth assay in yeast without galactose
# Description: FIG. 6. (Yeast cells) Membrane targeted transcriptional activation domain of Gal4p (Gal4AD; amino acid 758-881) activates HIS3 reporter gene expression. A yeast strain harboring a UASGAL-HIS3 reporter was transformed with Myr-Gal4AD. […] Transformed cells were spotted on synthetic medium plates lacking histidine, tryptophan and uracil and containing 3% glycerol/2% lactic acid as carbon source.
binder,measurement,setting,value
MGCTVSTQTIGDESDP (N-myristoylation signal) [Myr sequence],binding result,[1],no binding
B1,binding result,[2],binds
same,MEL1 gene expression level,[3],2 fold reduction
B2,binding result,[4],binds
